For 1 substance, stoichiometry N results are on record in article PMC12607393.

The target of experiment [1] is Galactia lindenii Type I lectin (GLL-I) (Galactia lindenii). In words: SDS-PAGE of heated sample; purified GLL-I (15 ug per lane) in SDS + DTT with heating (reducing conditions); Coomassie staining.
Experiment [2] shares this target. In words: SDS-PAGE of unheated sample; purified GLL-I (15 ug per lane) in SDS without heating, with or without DTT; Coomassie staining.

As a reminder, the stoichiometry N is a count of units in the complex or per binding partner. Consider “Galactia lindenii Type I lectin (GLL-I) (natural protein)”, for which the stoichiometry N in experiment [1] came out at 2; in experiment [2], 4.
